These results are taken from patent EP2330122A1, “OFA/iLRP derived modified peptide” (Asklepios Kliniken Hamburg Gmbh, priority 2009, dated 2011).

Where no end group is shown, it is not given here.

Series [1] concerns tumor cells from CLL patients. Nature of the series: 51Chromium release assay on tumor cells from CLL patients. The class given is cell-based, human. Conditions: CTL induction with the peptide. On the procedure:
For the induction of OFA/iLR peptide-specific CTL obtained from patients with CLL CDS^+ T cells were separated from PBMC using immunomagnetic beads (MACS®, Miltenyi, Bergisch-Gladbach, Germany) and co-cultured with autologous irradiated OFA/iLR peptide-pulsed CD8^+/CD4^+-depleted PBMC. CTL were weekly restimulated with autologous irradiated peptide-pulsed CD8^+ICD4^+-depleted PBMC in the presence of IL-2 (20IU/ml; CellConcepts, Weisskirch, Germany) and IL-7 (10ng/ml; PeproTech, Hamburg, Germany). After at least four weekly restimulations, CTL reactivity was determined in a conventional 4h ^51Chromium release assay. Antibody blocking experiments were performed as previously described (Zeis M, Siegel S, Schmitz M et al. Induction of cytotoxic T lymphocytes against hematologic neoplasms by survivin RNA-transfected dendritic cells. J Immunol. 2003; 170, 5391-5397).
T cells specific for HLA-A* 02-restricted iLR-ASK-a2 peptide were tested in a standard ^51Chromium release assay on tumor cells from CLL patients.

Series [2] addresses T1, HLA-A*0201 molecule on the TAP-deficient T2 cell line (human).
T1 construct: whole, on cells; MHC class I on T2 cells, loaded with peptide from outside; also called HLA-A2-molecule; HLA-A*02-molecule
The experiment in a line: T2 binding assay.

For series [3], the target named is T1, HLA-A*0201 molecule on the …. The experiment in a line: T2 binding assay, compared with the native peptide SEQ ID No. 2.

For “VAIENPADV [natural processed iLR66-74 peptide]”, in series [1], the “cytotoxicity obtained by stimulation of patients PBMC with the peptide” value is on record as “no cytotoxicity”.

B1: native iLR66-74, naturally processed OFA/iLR peptide (VAIENPADV) (peptide)
peptide: VAIENPADV
notes: Synthetic 9-mer; also called naturally processed iLR peptide; naturally processed peptide
As for B1, the binding result in series [2] was “binds”.

B2: iLR-ASK-A2 66-74 modified OFA/iLR peptide (VLIENPADV) (peptide)
peptide: VLIENPADV
notes: It is OFA/iLRP AA66-AA74 with the second residue changed from Ala to Leu; also called modified peptide
As to B2, the binding result in series [3] was “binds”.
